Assay results taken from doi:10.1101/2020.06.12.149252.

These substances were tested against taxol-stabilized microtubules (porcine brain tubulin) (porcine) (UniProt P02550) (assay: TIRF microscopy).
Chain of UniProt P02550 (P02550 whole entry): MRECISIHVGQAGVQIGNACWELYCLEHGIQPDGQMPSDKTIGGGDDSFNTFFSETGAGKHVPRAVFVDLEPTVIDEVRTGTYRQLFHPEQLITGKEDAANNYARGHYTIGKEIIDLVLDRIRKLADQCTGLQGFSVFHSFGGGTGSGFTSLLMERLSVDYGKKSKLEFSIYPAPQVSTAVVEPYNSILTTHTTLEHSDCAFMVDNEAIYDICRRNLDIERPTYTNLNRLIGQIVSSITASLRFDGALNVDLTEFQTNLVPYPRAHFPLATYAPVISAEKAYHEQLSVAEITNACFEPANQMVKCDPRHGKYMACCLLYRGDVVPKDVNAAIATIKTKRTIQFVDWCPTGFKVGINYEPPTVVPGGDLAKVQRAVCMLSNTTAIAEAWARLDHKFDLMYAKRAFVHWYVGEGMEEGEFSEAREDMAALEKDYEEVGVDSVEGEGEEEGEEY
“sfGFP-DCLK1-D511N (kinase dead), expressed in bacteria under standard conditions (from UniProt O15075 1-740) (natural protein)” showed a microtubule-bound fluorescence intensity at 3 nM of 7140 and a microtubule-bound fluorescence intensity at 25 nM of 19600. “sfGFP-DCLK1-T687/688A co-expressed with lambda phosphatase, without ATP (from UniProt O15075 1-740) (natural protein)” was tested, and the Kd was 9.4 nM. For “sfGFP-DCLK1-T687A co-expressed with lambda phosphatase, without ATP (from UniProt O15075 1-740) (natural protein)”, the Kd was 2.4 nM. For “sfGFP-DCLK1-T688A co-expressed with lambda phosphatase, without ATP (from UniProt O15075 1-740) (natural protein)”, the Kd was 2.4 nM. “sfGFP-DCLK1-WT co-expressed with lambda phosphatase, without ATP (from UniProt O15075 1-740) (natural protein)” showed a Kd of 2.9 nM, a microtubule-bound fluorescence intensity at 3 nM of 14900 and a microtubule-bound fluorescence intensity at 12 nM of 20600. The microtubule-bound fluorescence intensity at 48 nM was 15900. Work on “sfGFP-DCLK1-WT treated with lambda phosphatase after purification (from UniProt O15075 1-740) (natural protein)” yielded a microtubule-bound fluorescence intensity at 3 nM of 15900 and a microtubule-bound fluorescence intensity at 25 nM of 18200. “sfGFP-DCLK1-WT, expressed in bacteria under standard conditions (from UniProt O15075 1-740) (natural protein)” was tested, and the microtubule-bound fluorescence intensity at 3 nM was 2560 and the microtubule-bound fluorescence intensity at 25 nM was 16500. For “sfGFP-DCLK1-ΔC4A co-expressed with lambda phosphatase, without ATP (from UniProt O15075 1-648) (domain or fragment)”, the microtubule-bound fluorescence intensity at 3 nM was 745, the microtubule-bound fluorescence intensity at 12 nM was 2550 and the microtubule-bound fluorescence intensity at 48 nM was 4530. “sfGFP-DCLK1-ΔC (aa 1-648) co-expressed with lambda phosphatase, without ATP (from UniProt O15075 1-648) (domain or fragment)” showed a Kd of 3.9 nM, a microtubule-bound fluorescence intensity at 3 nM of 6790 and a microtubule-bound fluorescence intensity at 12 nM of 9840. It also gave a microtubule-bound fluorescence intensity at 48 nM of 14800. “sfGFP-DCLK1-ΔC (aa 1-648) treated with lambda phosphatase after purification (from UniProt O15075 1-648) (domain or fragment)” was tested, and the microtubule-bound fluorescence intensity at 3 nM was 11800 and the microtubule-bound fluorescence intensity at 25 nM was 21600.
